Reference: PMC2116055

Columns and labels:
Assay in all cases: non-reducing SDS-PAGE of immunoprecipitates
[1] = biological target: recombinant rat fibronectin, A form (with EIIIA only), expressed in WEHI231 cells (rat)
[2] = biological target: recombinant rat fibronectin, B form (with EIIIB only), expressed in WEHI231 cells (rat)
[3] = biological target: recombinant rat fibronectin, O form (no EIIIB, EIIIA or V segment), expressed in WEHI231 cells (rat)
[4] = biological target: recombinant rat fibronectin, V form (with the V segment only), expressed in WEHI231 cells (rat)

Question: How did the stoichiometry N [1] turn out when “recombinant rat fibronectin, A form (with EIIIA only), expressed in WEHI231 cells (natural protein)” was run?
Answer: 2

Question: For “recombinant rat fibronectin, B form (with EIIIB only), expressed in WEHI231 cells (natural protein)”, which stoichiometry N [2] is on record?
Answer: 2

Question: What does the source list for “recombinant rat fibronectin, O form (no EIIIB, EIIIA or V segment), expressed in WEHI231 cells (natural protein)”?
Answer: percent in the dimeric form [3]: 50%; stoichiometry N [3]: 2

Question: “recombinant rat fibronectin, V form (with the V segment only), expressed in WEHI231 cells (natural protein)” was tested. Which percent in the dimeric form [4] did it give?
Answer: 90%

Question: What about the stoichiometry N [4] of the same substance?
Answer: 2
